One may read the Kd as the free concentration of one partner at which half of the binding sites on the other are occupied at equilibrium, for simple one-to-one binding.

To fix the notation:
T1: ALPI (screening and SPR/ELISA protein) (UniProt P09923 20-503, limits assumed)
T1 sequence (looked up): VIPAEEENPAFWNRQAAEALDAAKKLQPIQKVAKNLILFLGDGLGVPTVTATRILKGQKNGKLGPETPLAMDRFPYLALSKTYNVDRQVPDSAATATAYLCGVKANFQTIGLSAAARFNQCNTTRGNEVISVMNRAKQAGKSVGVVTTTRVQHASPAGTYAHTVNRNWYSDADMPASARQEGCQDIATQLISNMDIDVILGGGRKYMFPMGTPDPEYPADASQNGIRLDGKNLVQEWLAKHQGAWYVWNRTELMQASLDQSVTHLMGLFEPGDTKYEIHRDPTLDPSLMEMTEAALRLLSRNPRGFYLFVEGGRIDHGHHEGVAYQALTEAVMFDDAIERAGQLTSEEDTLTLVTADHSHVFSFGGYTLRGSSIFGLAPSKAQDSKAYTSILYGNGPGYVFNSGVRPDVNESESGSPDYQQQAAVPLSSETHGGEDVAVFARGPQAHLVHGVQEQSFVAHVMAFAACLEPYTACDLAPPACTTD

T2: human ALPPL2 (recombinant protein) (human, UniProt P10696 20-503)
T2 chain: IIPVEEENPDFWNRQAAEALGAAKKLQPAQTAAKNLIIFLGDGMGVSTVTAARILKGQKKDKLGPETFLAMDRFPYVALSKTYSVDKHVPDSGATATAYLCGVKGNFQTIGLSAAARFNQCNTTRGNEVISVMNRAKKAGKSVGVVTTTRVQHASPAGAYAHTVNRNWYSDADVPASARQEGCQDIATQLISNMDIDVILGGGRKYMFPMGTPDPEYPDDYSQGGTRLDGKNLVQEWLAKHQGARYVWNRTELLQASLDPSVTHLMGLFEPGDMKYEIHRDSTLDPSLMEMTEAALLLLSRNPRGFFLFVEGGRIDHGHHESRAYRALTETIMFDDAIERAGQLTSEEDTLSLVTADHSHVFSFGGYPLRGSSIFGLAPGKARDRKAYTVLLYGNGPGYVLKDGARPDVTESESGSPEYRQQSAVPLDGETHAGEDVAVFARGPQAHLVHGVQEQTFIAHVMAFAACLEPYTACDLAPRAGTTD

B1: AB2C127 (antibody, V domains shown)
VH: QSLEESGGDLVKPGASLTLTCTASGFSFNSYYMCWVRQAPGKGLEWIACISGGSSDNTYYASWAKGRFTTSKTSSTTVTLQMTSLTAADTATYFCARDIPRSGYFGCDLWGPGTLVTVSS
VL: VVMTQTPASVSEPVGGTVTIKCQASQNIYSNLAWYQQKPGQRPKLLIYGASNLESGVPSRFKGSGSGTEYTLTISNLECADAATYYCQSTVYNSNYANTFGGGTEVVVK
notes: Rabbit antibody cloned from a single B cell
B2: AB2C102 (antibody, V domains shown)
VH: QQQLEESGGDLVQPGASLTLTCTASGFSFNSNYWMCWGRQAPGKGLEWIGCILFGNTDTYYANWAKGRFTISKTSSTTVTLQMTSLTAADTATYFCARSVSGVGSAWNLWGPGTLVTVSS
VL: IVMTQTPSSKSVPVGDTVTINCQASESVYNNNHLAWYQQKPGQSPKLLIYLASILDSGVPSRFKGSGSGTQFTLTISDVVCDDAATYYCAGYKGITIDGSAFGGGTELVVK
notes: as for B1
B3: AB1C29 (antibody, V domains shown)
VH: QEHLEESGGGLVKPEGSLTLTCTASGFSFSSSYYMCWVRQAPGKGLEWIACIYPDDGNTYYASWAKGRFTISKTSSTTVTLQMTSLTAADTATYFCARALAYYAYVDGGHSYAINDFDLWGPGTLVTVSS
VL: QVLTQTPSSVSAAVGGTVTINCQSSQSVFSNDYFSWYQQKPGQPPKLLIYDASRLASGVPSRFKGSGSGTQFTLTISGVQCDDAATYYCQGTYYSSAWYNAFGGGTEVVVK
notes: as for B1
B4: AB2C136 (antibody, V domains shown)
VH: QEQLEESGGDLVKPGASLTLTCTASGFSFNSNYYMCWVRQAPGKGLEWIACIYTGIVVPTYYASWAKGRFTISKTSSTTVTLQMTSLTAADTATYFCARDPYVGSSYIYNLWGPGTLVTVSS
VL: LVMTQTPSPVSAAVGSTVTISCQSSQSVYNNNNLAWYQQKPGQPPKLLIYSASSLASGVPSRFKGSGSGTQFTLTISGVECDDAATYYCAGYKTYSNNENAFGGGTEVVVK
notes: as for B1
B5: AB1C39 (antibody, V domains shown)
VH: QSLEESGGDLVKPGASLTLTCTASGFSFSSSYYMCWVRQAPGKGLEWIACIYAGSSGGTYYASWAKGRFTISKTSSTTVTLQMTSLTAADTATYFCARAFSYYYSDGYTGYAYGLWGPGTLVTVSS
VL: DIVMTQTPASVEAAVGGTVTIKCQASQSISSYLAWYQQKPGQPPKLLIYRASTLASGVPSRFKGSGSGTQFTLTISDLECADAATYYCQGAYYSSSSSYGFGGGTEVVVK
notes: as for B1
B6: AB2C124 (antibody, V domains shown)
VH: QEQLVESGGGLVQPEGSLTLTCTASGFSFSSSYFMCWVRQAPGKGLEWIACIYTGDGNNYYASWAKGRFTISKTSSTTVTLQMTSLTAADTATYFCSRGGSYYAYGYAGYDYYPDAFDYWGPGTLVTVSS
VL: B5 VL with A13V, A34S, G90S, A91Y, S97G
notes: as for B1
B7: AB2C133 (antibody, V domains shown)
VH: QSLEESGGDLVKPGASLTLTCTASGLDFSSSYWICWVRQAPGKGLEWIGCIKTATETTVYASWAKGRFTISKTSSTTVTLQMTSLTAADTATYLCAKTYADNGGYINLWGPGTLVTVSS
VL: LVMTQTPSSVSAAVGGTVTINCQASQNIYNNLAWYQQKPGQRPKLLIYGASNLESGVPSRFKGSGSGTEYTLTISDLECDDAATYYCQSADLTSSINVFGGGTEVVVK
notes: as for B1
B8: AB1C19 (antibody, V domains shown)
VH: QSLEESGGDLVQPEGSLTLTCKASGFDFSTNIMCWVRQAPGKGLEWIACIYAGDGSTYYASWVNGRFTISKTSSTTVTLQMTSLTAADTATYFCARASTYWNYGYAGYGYYPGYFNLWGPGTLVTVSS
VL: DIVMTQTPASVEAAVGGTVTIKCQASQSIISALAWYQQKPGQPPKLLIYAASTLASGVPSRFKGSGSGTQFTLTISDLECADAATYYCQTYAYSTKSNYGSVFGGGTEVVVK
notes: as for B1
B9: AB1C10 (antibody, V domains shown)
VH: QSLEESGGDLVKPGASLTLTCTASGFDFSSNGMCWVRQAPGKGLEWIACIYVDSSDNTNYASWVNGRFTISRTSSTTVTLQMTSLTAADTATYFCARGYGYVGSAMDLWGQGTLVTVSS
VL: DIVMTQTPASVEAAVGGTVTIKCQASQSINNELSWYQQKPGQRPKLLIYGASTLESGVPSRFSGSGSGTEFTLTISDLECADAATYYCQSAYYSSSSSYANTFGGGTEVVVK
notes: as for B1
B10: AB1C31 (antibody, V domains shown)
VH: B9 VH with T79D, Q81K
VL: B9 VL with N30S
notes: as for B1
B11: AB1C25 (antibody, V domains shown)
VH: B9 VH with N57S, N59Y
VL: B9 VL with N30S, V111A, K112A
notes: as for B1
B12: AB2C129 (antibody, V domains shown)
VH: QSLEESGGDLVKPGASLTLTCTASGFSFSSSYWICWVRQAPGKGLEWIACIYAGSSGDTYYASWAKGRFTISKTSSTTVTLQTTSLTAADTATYFCARAEYIDGYADYTYTTLYYFDLWGPGTPVTVSS
VL: DVVMTQTPASVSEPVGGTVTINCQASESINSWLAWYQQKPGQPPKLLIYSASTLASGVPSRFKGSGSGIEFTLTISDLECADAATYFCQSYYSFSRFAFGGGTEVVVK
notes: as for B1
B13: AB1C12 (antibody, V domains shown)
VH: QSLEESGGDLVKPGASLTLTCTASGFSFSSSYWISWVRQAPGKGLEWIACIAIGSSGTTYYASWAKGRFTISKTSSTTVTLQMTSLTAADTATYFCARSGDGYTYVELWGPGTLVTVSS
VL: DVVMTQTPASVSEPVGGTVTIKCQASQSISSYLAWYQQKPGQPPKLLIYRASTLASGVPSRFKGSGSGTQFTLTISDLECADAATYYCQNYYDIDDSDNTFGGGTEVVVK
notes: as for B1

Numbering of substitutions follows the chain as printed.

One assay addresses T3, human ALPPL2 (recombinant protein) (human, UniProt P10696 20-503, limits assumed).
T3 construct: biotinylated where captured on streptavidin
Kind of assay: screen of rabbit B-cell clones by ELISA and FACS. The source says: (§1) Specific clones were screened and identified by ELISA and high throughput flow cytometry (FIG. 3). Rabbit kidney cells were transfected with either truncated (for ELISA screen) or full-length (for FACS screen) ALPI and ALPPL2.
For the molecule B1, the binding result is listed as “binds”.

B2: the binding result is “binds”.

On to B3, for which the binding result is “binds”.

As for B4, the binding result is reported as “binds”.

For the molecule B5, the binding result was “binds”.

Consider B6, for which the binding result was “binds”.

Take B7: the binding result is “binds”.

Consider B8, for which the binding result is given as “binds”.

With B9, the binding result is on record as “binds”.

Regarding B10, the binding result was “binds”.

On to B11, for which the binding result was “binds”.

On to B12, for which the binding result is “binds”.

B13: the binding result was “binds”.

The next assay concerns the target T1, ALPI (screening and SPR/ELISA protein). Kind of assay: screen of rabbit B-cell clones by ELISA and FACS.
Excerpt: as §1
Regarding B1, the binding result is “no binding”.

For the molecule B2, the binding result is reported as “no binding”.

Turning to B3, the binding result was “no binding”.

Take B4: the binding result was “no binding”.

In the case of B5, the binding result is “no binding”.

In the case of B6, the binding result was “no binding”.

For B7, the binding result is given as “no binding”.

Turning to B8, the binding result is “no binding”.

B9: the binding result is listed as “no binding”.

For the molecule B10, the binding result is on record as “no binding”.

As for B11, the binding result is “no binding”.

With B12, the binding result is listed as “no binding”.

In the case of B13, the binding result is listed as “no binding”.

The target of the next assay is T2, human ALPPL2 (recombinant protein). Kind of assay: BLI; single concentration. In general terms: Biolayer interferometry detects binding as a change in optical thickness at a sensor tip.
For the molecule B1, the dissociation constant (Kd) is 1.7 nM.

As to B2, the dissociation constant Kd came out at 0.5 nM.

Regarding B3, the dissociation constant Kd amounted to 0.2 nM.

As to B4, the equilibrium dissociation constant (Kd) is 0.1 nM.

For B5, the Kd amounted to 2 nM.

Take B6: the Kd is 1.6 nM.

With B7, the Kd came to 1 nM.

With B8, the dissociation constant (Kd) was 1.69 nM.

As for B9, the dissociation constant (Kd) came to 0.15 nM.

Turning to B10, the Kd was 0.4 nM.

For B11, the Kd was 1.4 nM.

As for B12, the equilibrium dissociation constant (Kd) turned out to be 0.001 nM.

In the case of B13, the dissociation constant (Kd) was determined as 0.8 nM.
